We go through one molecule from patent US20110262445A1.

This experiment deals with human IL-12, IL-23, IL-12p40. Description: SPR. In general terms: In SPR one partner is held on a chip, and binding of the other changes the refractive index at the surface.

B1: Antibody 1 (antibody, human IgG1, kappa, V domains shown)
VH: EVQLQQSGADLVRSGASIKLSCTASGFNIKDYYMHWVKQRPEQGLEWIGWIDPENGDTEYAPKFQGKATMTADTSSNTAYLQLSSLTSEDTAVYYCNACKELRYFDVWGAGTTVTVSS
VL: DIVLTQSPATLSVTPGDSVSLSCRASQSISINLHWYQQKSHESPRLLIKFASQSISGIPSRFSGYGSGTDFTLSINSVETEDFGRYFCQQSNSWPLTFGAGTKLELKR
In general, Kd refers to the concentration at which binding is half-saturated. A higher Kd goes with weaker binding. In the case of B1, the Kd was in the range of 0.04 to 0.07 nM.
